The DeepSol protein solubility set

assay: soluble on expression in E. coli; label from the status in PepcDB or PDB records

Sequence | soluble on expression in E. coli
MAHHHHHHMKQLLSPKTARHSRLFRLANRLAGQKGAPESDGERLSWVNSHVKRTQDMELSREEEALRERIMPLEVGDNAVVSNSQATHGNLFHFREYPMYPGEYVPAGHNTLSSLRDELRSDLTAQSLKEAWMRVSGGMYFKSIDDYYASVDGLDQEQLGEIVSALLPDLRKYEAQALVTKVLESLSKPADSPSRQLSRTITADAVGLDNAPGHYTNFLEWMGRMTETKAFKTEHALFEFSRRKFNREDVRVMFENYNLMSKATLEADSTDSYSHFYTVLHDFSRKVAGEDTRHQIGVRIDPAEVDPETGIAVGHGRADGQKYMFTALIRENRDHNGSVTLLGKPLSVAFDDKSWLMEMVLMPFDEAKLDFRDFDVNLISEGKAMPSFANEIAAFACRMAVANAITKLLPLARIPLKKAGLLSVDRRREPGQFPGFVDGKKNKRKFAKR | not soluble
MAHHHHHHMPENDEHVVVQACSVRVALPASTQPCGVEDAVQHCLHAARAIVQINLVRGTPRVALQLLACRTDACGEQHTASQVLDESPRRLQYALLLRGFEQRGGPVNRLDHTSLACAMCVPNYFSPHHFGAAAVPFFRTYHVTEALAKRRYADAAVMMACLEVETVAEASTEVPPWLARALQLLCRGEDREGVWQAWWIHEVPAATQRRMVCAKSDLVWNVVASHRLQELVAATGGCRDVLLAAAPKPGDFVFQLEEAEDSGATSAALAPVALSAPVTAVYSQAQAARYSVHDIALPLVLDASSEFEGCESLAVIEAQLGFTHDRRRHLSLHPSQRPCQSHTSLPAVAQTNETVFRPLLVEATGYPRATRPWCRSFPEPSVGPAFDRPKAALESNATVFALATDWDLASQTAVARDYAAKSRGPRACVWPLSKRGRALTDRLPAGLMTVASADGSSLLGGASTTNYHGSRCLAIHCTLPARVSLANFVSELAAVEDLRDSQA | not soluble
MKLYIGNKNYSSWSLRAWLMVKKSGIKFDEILLQLDTDSFYQQLQSISPTLKVPTLVDGDITVWDSLSICEYINDSYLSGTAWPQDPKQKAKARSLACEMHSGFNALRNALPMNIRARRYVELSPAVQQDIARVDSIWSQQMAEFAPCQTQGTWLFGQWSIADMMFAPVVMRFFTYEIEVSQASRAYMEYIMSQPQMQAWITAAKAETEIVEADEAGVDR | not soluble
MAHHHHHHMTHMGRAADGYQRLGNNYPQVTPSSHFAAASPDPVLATPIQTRPLQGNPFHPLLWNGSATSSTGAAGVQASLSRKSRTRLTSGVTAGSSSGPLSSTLSLSTPLSSCASAAASGEGRFQRRVSRDRFGACSTPTSSSTTAQVLQLQRPAQSPMPPLSSSPPASVGLTAAAARGAVTPANLGRERKVAAVNYNALFQQELQQQQRQGSDTGAWPTPSPSPPSGALQYAQLPPSASADVHGTGAHSGSGEGVSEALSSSVTASSVQAGTAEGPLPPDVRRIIAQSCTSSSSSSGADTNAIIDAAEQQARRLISTGRRVKVYREELTTAEEERNDLSAAVEERRLVRSVLQSEVDDINARIQALLQERALAEAQLHAQDDAAAREARKLTEAQDRVTVLRKTIEGIVEETSAARLMLRQIVPSLHIENYY | not soluble
MIFSDWPWRHWRQVRGEAIALRLNDEQLNWRELCARVDELASGFAVQGVVEDSGVMLRAWNTPQTLLAWLALLQCGARVLPVNPQLPQPLLEELLPNLTLQFALVPDGENTFPALTSLHIQRVEGAHVATWQPTRLCSMTLTSGSTGLPKAAVHTYQAHLASAEGVLSLIPFGDHDDWLLSLPLFHVSGQGIMWRWLYAGARMTVRDKQPLEQMLAGCTHASLVPTQLWRLLVNRSSVSLKAVLLGGAAIPVELTEQAREQGIRCFCGYGLTEFASTVCAKEADGLADVGSPLPGREVKIVNNEVWLRAASMAEGYWRNGQLVSLVNDEGWYATRDRGEMHNGKLTIVGRLDNLFFSGGEGIQTEEVERVIAAHPAVLQVFIVPVADKEFGHRPVAVMEYDHESVDLSEWVKDKLARFQQPVRWLTLPPELKNGGIKISRQALKEWVQRQQ | not soluble
MAHHHHHHMIEHLNLWLPWKHRKPMWPYPQKNAMPSVFPLEFTTLGEGVVTFSCLCLAAVLAVQEVLTPSHGFPTVLVAFPHKRGGVSSALLYSKVVEAFIQSLRSESALVEAVTVRHMARAALQALNTIINACFSEQYPLYTMAQLLLSEGKAEAKDATHDGGMLGAVDLVLSIDPLSCGGDILHSETQLVMPTPFAIRSVGRCTPGAARQQTNVKLPSALEVTDAALLQMPGAGESSTGRRLSACILERSQVLLTLLK | not soluble
MTTSAMTAPDTRRQLQHVETLRRFLRGDSCFVHDLRGMMDYHDGLSRRQQRAFCRASRVLTDPEPIQSEAEGENKQFTEHTHKVVSFFIKSVFVFPYLVLPNCCQVSVDRSRVPETGGRWLLEHHHHHH | not soluble
MALTTRRRALTTLGAALTGAVALPAGTALASQGGHGPRPLWRAHAHNDYEHPRPLLDALDHRFGSVEADIYLVGGQLLVAHDPEDLDPSRTLESLYLDPLAARVRAHHGRVYRRDRGSLQLLIDIKTEGEATYLELDRRLRRYKNLFTSYAHGRVFPGAVTAVVSGDRAARAPMAAQRSRRAFYDGRLTDLGTVAPASFVPLISDNWTLNFTWQGVGTFPAAERRRLRDIVGAAHARGQRVRFWATPDVAGPARDAVWAELLAAGVDHLNTDDLAGIEAFLDAHRDALEHHHHHH | soluble
MSLNFTLHTLNGIKLWLVLLLLSGAINVCRADSPRQTINFNRGWKYCQGDFDHAARPGFDDSEWEKIGLPHSFSTPYFMSKDFYVGYGWYRKAFPVKKEILGKKSFLEFDGVFQEAEIFVNGHLAGTHKGGYTGFSIDISAYLKEGKNLVAVRVNNCWRPDLAPRAGEHVFSGGIYRNVRLVIKPPTYIDWYGTWITTPDLAENKGKSGSVHIRTDVCNASGKTDTYRLLTTVVDAQGKEVSSVSTSQVLPDNATYTFEQQTKEIQAPQLWHPNHPALYKVISSLYHGQELIDRYETAFGFRWFEWTADRGFFLNGEHLYFKGANVHQDHAGWGDAVTETGMRRDIRLVKEAGFDLIRGSHYPHSPAFSQACDEIGMLFWAENAFWGIGGHKGDGYWNASAYPVNESDRAEFENSVKAQLKELIRIHRNHPSIIVWSMSNEPFFTAPETINPMRKLLEETVKLSKQLDPTRPAAVGGAQRPLGEKRIDKLGDIAGYNGDGSYIPEFQQPGMPTVVSEYGSTTADRPGEYDPGWGDLAKNNAQNGFPWRSGQAIWCAFDHGSIAGSALGKMGIIDYFRIPKRAWYWYRNAYKGITPPEWPQEGTPARISLVADRTDNIKADGTDDVMLSITILDASGKPVSNSPAVKLDILSGPGEFPTGTSILFEKESDIRILDGKAAIEFRSYYAGETVIRATSPGLEPAEVKIRFTGSTPYTEAFKVKERPYTRFETPTKTDNLQTFGPNNPTFCSSSANGHSSAFAADGDESTYWQASENDPERSWTLDTEKGLSIRHIRIAFPDLTPYQYKVEVSMDREHWSLIPDQTNNKQNENIRMIQVVPGIQGRFVRISFTGEKAAITDVQVIGTVIDEGHHHHHH | soluble
MKSVQDALYNWLTIHIVAKARPHDAAARDTASFFRAILENDFGVTAVDAVKDETNGQYIVEYVRGGETRAACFPLELAEAMWRQIEAEPEKYG | not soluble
MGSSHHHHHHSSGLVPRGSEVVIVSATRTPIGSFLGSLSLLPATKLGSIAIQGAIEKAGIPKEEVKEAYMGNVLQGGEGQAPTRQAVLGAGLPISTPCTTINKVCASGMKAIMMASQSLMCGHQDVMVAGGMESMSNVPYVMNRGSTPYGGVKLEDLIVKDGLTDVYNKIHMGSCAENTAKKLNIARNEQDAYAINSYTRSKAAWEAGKFGNEVIPVTVTVKGQPDVVVKEDEEYKRVDFSKVPKLKTVFQKENGTVTAANASTLNDGAAALVLMTADAAKRLNVTPLARIVAFADAAVEPIDFPIAPVYAASMVLKDVGLKKEDIAMWEVNEAFSLVVLANIKMLEIDPQKVNINGGAVSLGHPIGMSGARIVGHLTHALKQGEYGLASICNGGGGASAMLIQKL | soluble
MSNKNKSYDYVIIGGGSAGSVLGNRLSEDKDKEVLVLEAGRSDYFWDLFIQMPAALMFPSGNKFYDWIYSTDEEPHMGGRKVAHARGKVLGGSSSINGMIYQRGNPMDYEGWAEPEGMETWDFAHCLPYFKKLEKTYGAAPYDKFRGHDGPIKLKRGPATNPLFQSFFDAGVEAGYHKTPDVNGFRQEGFGPFDSQVHRGRRMSASRAYLHPAMKRKNLTVETRAFVTEIHYEGRRATGVTYKKNGKLHTIDANEVILSGGAFNTPQLLQLSGIGDSEFLKSKGIEPRVHLPGVGENFEDHLEVYIQHKCKEPVSLQPSLDIKRMPFIGLQWIFTRTGAAASNHFEGGGFVRSNNEVDYPNLMFHFLPIAVRYDGQKAAVAHGYQVHVGPMYSNSRGSLKIKSKDPFEKPSIRFNYLSTEEDKKEWVEAIRVARNILSQKAMDPFNGGEISPGPEVQTDEEILDWVRRDGETALHPSCSAKMGPASDPMAVVDPLTMKVHGMENLRVVDASAMPRTTNGNIHAPVLMLAEKAADIIRGRKPLEPQYIDYYKHGVHDENEGAIEVKPYAK | not soluble
MSLSRVPRPHIHQRISVEDIMKGNRRTLAKAITLAESSNPADSTRLGNLLREIHQMATVRTVPRFALSGSPGSGKSSLLDTLGYYLCEKKNMHVGVLAVDPSSTITHGSILGDKTRMEKLGTHLNSYIRPSPSGGHLGGVTSRAWEALEIFEAARFDVVFVETVGVGQSETQCKDLTDMMILLVPPASGDELQGIKKGVVEVADMVVVTKNDGRRKPLVQQTMSAYARAVMYTEEKQGFEKPVIAVSAEEGTNVPELWEAMLKMWNARLESGQIAHLRRAQSTKHFYNYFEMELLAKARRMTNLEMQNMAHRVWEHEMTPREAGDIMVLRTLREHLAADAAVQHDAGKRAEGHHHHHH | soluble
MGSSHHHHHHDYDIPTTENLYFQGHMKIGIMSDTHDHLPNIRKAIEIFNDENVETVIHCGDFVSLFVIKEFENLNANIIATYGNNDGERCKLKEWLKDINEENIIDDFISVEIDDLKFFITHGHHQSVLEMAIKSGLYDVVIYGHTHERVFEEVDDVLVINPGECCGYLTGIPTIGILDTEKKEYREIVL | soluble
MGVYVLNVTDNSTFKGILNISDTVTAVNDQTFDSSKDLIDYVSSQKLGDSVKVTYEEDGQTKSAEGKIITLENLEHHHHHH | not soluble
SSPTMTSSLRLRTLILGKQRWIKPRNFYQFCDKYAIGYENKKNNSLRNHKILRFNDGSVANYRIYEFEIYNFNSDSWKVFDFTPDWDISFTDLSVSLKGYTYWLIRSNGLIQEYYARSLRKMMIKNY | soluble
MGSDKIHHHHHHMSVTSTTSQNSLFDVIVIGSGIGGLVTATQLAAKGAKVLVLESYIIPGGSAGYFERQGYRFDVGASMIFGLGNRGTTNLLTRALQAVNSSVEAIADPVQIHYHLPSNLNLKVDRVYDKFLQNLAAYFPHETKGIRRFYDECWQVFKCLNRMDLLSLEEPRYLLRTFLQHPLACLGLLKYLPQNVGDIARRYIRDPELLKFIDIECYCWSVVPAAMTPMINAGMVFSDRHYGGVNYPKGGVGQIAQKLAEGLEKVGGEIRYQAKVAKIITEKYRAVGVQLTNGEIYRSKRIVSNATRWDTFEKLLPVDKMPSNEKDWQHSYKKSPSFLSLHMGVKESVLPQGTECHHIILEDWQNMTQAEGTLFVSIPTLLDPELAPEGCHIIHAFTPHWINDWQGFSVSDYEAKKEETAWRIIDRLEKIFPGLDAGLDYLEVGTPRTHRRFLGREDGTYGPIPRRKLRGLLSMPFNRTAIKGLYCVGDSTFPGQGLNAVAFSGFACAHRIAVDLGL | not soluble
GSHMASADLVSSCKDKLAYFRIKELKDILNQLGLPKQGKKQDLIDRVLALLTDEQGQRHHGWGRKNSLTKEAVAKIVDDTYRKMQIQCAPDLATRSHSGSDFSFRPIEEA | soluble
